# Data taken from patent publication US20250376519A1 (JIANGSU HENGRUI PHARMACEUTICALS, published 2025).
# T1: human DLL3 on cells (human, UniProt Q9NYJ7 27-618)
# T1 sequence: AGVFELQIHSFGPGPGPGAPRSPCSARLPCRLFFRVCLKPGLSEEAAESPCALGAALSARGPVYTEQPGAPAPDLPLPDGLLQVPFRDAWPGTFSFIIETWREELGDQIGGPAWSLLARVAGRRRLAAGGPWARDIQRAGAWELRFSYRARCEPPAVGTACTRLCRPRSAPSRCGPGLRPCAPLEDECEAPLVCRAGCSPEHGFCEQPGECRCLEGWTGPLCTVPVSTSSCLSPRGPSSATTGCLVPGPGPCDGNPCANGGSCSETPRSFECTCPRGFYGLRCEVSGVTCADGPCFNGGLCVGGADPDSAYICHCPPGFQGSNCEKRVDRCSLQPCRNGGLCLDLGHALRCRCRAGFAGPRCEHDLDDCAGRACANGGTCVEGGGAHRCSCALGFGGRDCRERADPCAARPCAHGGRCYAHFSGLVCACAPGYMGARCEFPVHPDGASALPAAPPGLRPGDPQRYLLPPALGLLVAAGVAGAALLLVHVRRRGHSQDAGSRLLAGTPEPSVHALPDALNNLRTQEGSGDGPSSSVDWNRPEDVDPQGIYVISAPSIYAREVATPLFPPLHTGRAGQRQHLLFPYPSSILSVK
# T2: DLL1 (ACRO, DL1-H52H8) (human, UniProt O00548 18-540)
# T2 construct: Bought; also called human DLL1
# T2 sequence: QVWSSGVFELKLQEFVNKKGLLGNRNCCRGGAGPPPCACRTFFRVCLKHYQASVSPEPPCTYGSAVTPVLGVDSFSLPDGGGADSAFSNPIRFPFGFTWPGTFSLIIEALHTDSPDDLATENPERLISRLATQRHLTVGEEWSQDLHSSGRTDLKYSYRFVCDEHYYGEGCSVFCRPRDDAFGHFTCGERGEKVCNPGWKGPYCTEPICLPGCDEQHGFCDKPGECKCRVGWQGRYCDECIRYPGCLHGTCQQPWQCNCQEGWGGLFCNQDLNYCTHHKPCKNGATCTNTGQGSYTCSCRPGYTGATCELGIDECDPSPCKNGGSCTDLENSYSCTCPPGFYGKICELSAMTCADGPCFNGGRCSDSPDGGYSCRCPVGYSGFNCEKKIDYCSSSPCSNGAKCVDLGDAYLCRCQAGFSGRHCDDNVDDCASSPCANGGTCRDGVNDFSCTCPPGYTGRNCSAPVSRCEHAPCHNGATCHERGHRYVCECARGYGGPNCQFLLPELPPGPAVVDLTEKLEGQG
# Experiments:
# human DLL3 on cells [1] = target: T1, human DLL3 on cells; experiment: cell-based or functional assay
# [2] = target: T3, human CD3D&3E (ACRO, CDD-H52W1) (human, UniProt P04234 22-105; P07766 23-126); experiment: SPR Biacore 8K, Ab captured on Protein A
# T3 construct: bought CD3 delta/epsilon protein
# T3 sequence (P04234 22-105, chain 1 of 2): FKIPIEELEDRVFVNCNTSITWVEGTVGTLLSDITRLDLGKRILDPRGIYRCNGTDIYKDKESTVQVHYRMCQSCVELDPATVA
# T3 sequence (P07766 23-126, chain 2 of 2): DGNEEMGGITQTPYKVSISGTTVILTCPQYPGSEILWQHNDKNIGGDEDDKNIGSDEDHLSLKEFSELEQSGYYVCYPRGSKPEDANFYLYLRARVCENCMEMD
# Summary of the method: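 Antibodies captured on a Protein A chip for 18 s; DLL3 or CD3D&3E antigen flowed 180 s, then 600 s dissociation, with real-time detection. Regeneration used 10 mM glycine-HCl pH 1.5 between cycles. Kinetics were obtained by 1:1 model fitting.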
# DLL1 (ACRO, DL1-H52H8) = target: T2, DLL1 (ACRO, DL1-H52H8); experiment: ELISA, DLL1 coated at 1 µg/mL, detection with anti-human IgG (H+L)-HRP, OD450
# Procedure: DLL1 (ACRO, DL1-H52H8, 1 μg/mL) and DLL4 (ACRO, DL4-H5227, 1 μg/mL) were plated at 100 μL/well, and the plates were incubated overnight at 4° C. The plates were washed 3 times with 250 μL of PBST solution (PBS containing 0.1% Tween 20) per well. The plates were blocked with 250 μL of 5% milk per well at 37° C. for 2 h. The plates were washed 3 times with 250 μL of PBST solution per well. Test antibodies (maximum concentration 100 nM, serially diluted 4-fold) were added, and the plates were incubated at 37° C. for 1 h. The plates were washed 6 times with 250 μL of PBST solution per well. […] The plates were washed 6 times with 250 μL of PBST solution per well. TMB (KPL, 5120-0077) substrate solution was added at 100 μL/well, and color development was performed at room temperature for 5-10 min. 1 M H₂SO₄ was added at 100 μL/well to stop the color development, and microplate reader (Molecular Devices, VERSA max) readings at 450 nm were taken.
# human DLL3 on cells [3] = target: T1, human DLL3 on cells; experiment: cell-based or functional assay; remark: listed apart in the source
# human DLL3 on cells [4] = target: T1, human DLL3 on cells; experiment: cell-based or functional assay; remark: listed apart in the source
Binder,"EC50, Jurkat Lucia NFAT reporter with H82/DLL3 cells (human DLL3 on cells [1])","Fold changes in activation, Jurkat Lucia NFAT reporter with H82/DLL3 cells (human DLL3 on cells [1])",Kd [2],koff [2],kon [2],"binding result (DLL1 (ACRO, DL1-H52H8))","IC50, PBMC killing of H1184/lucG cells (human DLL3 on cells [3])","Imax (%), PBMC killing of H1184/lucG cells (human DLL3 on cells [3])","IC50, PBMC killing of SHP77/lucG cells (human DLL3 on cells [4])","Imax (%), PBMC killing of SHP77/lucG cells (human DLL3 on cells [4])"
"hu110-S107E-hot Ig (bispecific antibody, Format 1 (Hot-Ig, Titin/Obscurin-replaced DLL3 Fab), DLL3 x CD3) light 1: NIVMTQSPKSLAVSLGERATINCKASENVGIFVSWYQQKPGQSPKLLIYGASNRYTGVPDRFSGSGSATDFTLTISSLQAEDVADYYCGQSHSYPLTFGQGTKLEIKGGGGSSGAPRFLTRPKASVVSVGKDATLSCQIVGNPFPQVSWEKDKQPVTAGVRFRLAQDGDLYRLKILDLQLSDSGQYVCRARNAHGEAFACLGLQVDAEA heavy 1: EVQLVQSGAEVKKPGASVKVSCKTSGYTFTDYYMNWVRQAPGQSLEWMGIINPYQGGTSYTQKFKGRVTITVDKSASTAYMELSSLRSEDTAVYYCARHFYDSSYLTYSTMDYWGQGTTVTVSSGGGGSGIPPKIECLPIDISIDEGKVLTVASAFTGEPTPEVTWSTGGRKIHSQEQGRFHIENTDDSTTLTIKDVQKQDGGLYTLTLRNEFGSDSATVNIHIRSIDKTHTCPPCPAPEAAGGPSVFLFPPKPKDTLMISRTPEVTCVVVDVSHEDPEVKFNWYVDGVEVHNAKTKPREEQYNSTYRVVSVLTVLHQDWLNGKEYKCKVSNKALPAPIEKTISKAKGQPREPQVCTLPPSREEMTKNQVSLSCAVKGFYPSDIAVEWESNGQPENNYKTTPPVLDSDGSFFLVSKLTVDKSRWQQGNVFSCSVMHEALHNHYTQKSLSLSPGK heavy 2: not shown light 2: not shown",0.0177 nM,18 fold,46.7 nM,0.00749 s⁻¹,160000 M⁻¹ s⁻¹,no binding,0.0295 nM,92%,–,–
"hu110-I2C-hot Ig (bispecific antibody, Format 1 (Hot-Ig, Titin/Obscurin-replaced DLL3 Fab), DLL3 x CD3) light 1: NIVMTQSPKSLAVSLGERATINCKASENVGIFVSWYQQKPGQSPKLLIYGASNRYTGVPDRFSGSGSATDFTLTISSLQAEDVADYYCGQSHSYPLTFGQGTKLEIKGGGGSSGAPRFLTRPKASVVSVGKDATLSCQIVGNPFPQVSWEKDKQPVTAGVRFRLAQDGDLYRLKILDLQLSDSGQYVCRARNAHGEAFACLGLQVDAEA heavy 1: EVQLVQSGAEVKKPGASVKVSCKTSGYTFTDYYMNWVRQAPGQSLEWMGIINPYQGGTSYTQKFKGRVTITVDKSASTAYMELSSLRSEDTAVYYCARHFYDSSYLTYSTMDYWGQGTTVTVSSGGGGSGIPPKIECLPIDISIDEGKVLTVASAFTGEPTPEVTWSTGGRKIHSQEQGRFHIENTDDSTTLTIKDVQKQDGGLYTLTLRNEFGSDSATVNIHIRSIDKTHTCPPCPAPEAAGGPSVFLFPPKPKDTLMISRTPEVTCVVVDVSHEDPEVKFNWYVDGVEVHNAKTKPREEQYNSTYRVVSVLTVLHQDWLNGKEYKCKVSNKALPAPIEKTISKAKGQPREPQVCTLPPSREEMTKNQVSLSCAVKGFYPSDIAVEWESNGQPENNYKTTPPVLDSDGSFFLVSKLTVDKSRWQQGNVFSCSVMHEALHNHYTQKSLSLSPGK heavy 2: not shown light 2: not shown",–,–,–,–,–,no binding,–,–,0.0222 nM,96%
"hu110-I2C-Y body (bispecific antibody, Format 2 (Y body: DLL3 Fab-Fc hole + CD3 scFv-Fc knob)) light: NIVMTQSPKSLAVSLGERATINCKASENVGIFVSWYQQKPGQSPKLLIYGASNRYTGVPDRFSGSGSATDFTLTISSLQAEDVADYYCGQSHSYPLTFGQGTKLEIKRTVAAPSVFIFPPSDEQLKSGTASVVCLLNNFYPREAKVQWKVDNALQSGNSQESVTEQDSKDSTYSLSSTLTLSKADYEKHKVYACEVTHQGLSSPVTKSFNRGEC heavy: EVQLVQSGAEVKKPGASVKVSCKTSGYTFTDYYMNWVRQAPGQSLEWMGIINPYQGGTSYTQKFKGRVTITVDKSASTAYMELSSLRSEDTAVYYCARHFYDSSYLTYSTMDYWGQGTTVTVSSASTKGPSVFPLAPSSKSTSGGTAALGCLVKDYFPEPVTVSWNSGALTSGVHTFPAVLQSSGLYSLSSVVTVPSSSLGTQTYICNVNHKPSNTKVDKKVEPKSCDKTHTCPPCPAPEAAGGPSVFLFPPKPKDTLMISRTPEVTCVVVDVSHEDPEVKFNWYVDGVEVHNAKTKPREEQYNSTYRVVSVLTVLHQDWLNGKEYKCKVSNKALPAPIEKTISKAKGQPREPQVCTLPPSREEMTKNQVSLSCAVKGFYPSDIAVEWESNGQPENNYKTTPPVLDSDGSFFLVSKLTVDKSRWQQGNVFSCSVMHEALHNHYTQKSLSLSPGK not shown",0.00636 nM,–,–,–,–,no binding,0.00642 nM,98%,0.0338 nM,100%
